Data reported in patent US20230142800A1 (COMMISSARIAT A L ENERGIE ATOMIQUE ET AUX ENERGIES …, published 2023).

Each binder was assayed against T1, biotinylated TNF alpha (human (definition in paragraph 32)); the …, UniProt P01375 77-233, biotinylated (site not stated)) (assay: yeast display MACS and FACS sorting on biotinylated TNF alpha, NGS enrichment, CDRH3 library).
T1 construct: Used for FACS sorting of yeast libraries and immobilised on streptavidin sensors for BLI; also called TNFα; Tumor Necrosis Factor Alpha
Text: The second selection phase consists of selecting the mutant by the dissociation speed thereof.
The selection of DMS libraries was done in a single step by FACS on an ARIA III device (Becton Dickinson, Franklin Lakes, United States). […] After washing the cells with PBS 0.1% BSA, they were marked by using an APC coupled antibody directed against the OK domain (Thermo Fisher Scientific, Waltham, United States; dilution 1:100) and a PE coupled streptavidin (Thermo Fisher Scientific, Waltham, United States; dilution 1:100). The selection of libraries was done by means of rectangular sorting window containing 5% of the clones of interest according to the optimal parameters described by Kowalski et al. PLoS One 10, 1-23 (2015)). The selection of de-immunization libraries was done in several steps. […] The libraries underwent different steps of sorting by FACS.

T1 sequence (P01375 77-233 limits assumed): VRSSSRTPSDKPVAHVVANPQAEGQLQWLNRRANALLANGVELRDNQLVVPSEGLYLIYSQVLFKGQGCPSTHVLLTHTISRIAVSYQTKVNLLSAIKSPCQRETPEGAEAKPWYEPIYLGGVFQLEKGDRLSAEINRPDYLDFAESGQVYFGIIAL

Enrichment | Binder
71900 | CDRH3 library mutant VYYCAKVKYLPS (Fab, V domains shown) VH: EVQLVESGGGLVQPGRSLRLSCAASGFTFDDYAMHWVRQAPGKGLEWVSAITWNSGHIDYADSVEGRFTISRDNAKNSLYLQMNSLRAEDTAVYYCAKVKYLPSASSLDYWGQGTLVTVSS VL: not shown
81400 | CDRH3 library mutant VYYCAKVKYLPA (Fab, V domains shown) VH: EVQLVESGGGLVQPGRSLRLSCAASGFTFDDYAMHWVRQAPGKGLEWVSAITWNSGHIDYADSVEGRFTISRDNAKNSLYLQMNSLRAEDTAVYYCAKVKYLPAASSLDYWGQGTLVTVSS VL: not shown
241000 | CDRH3 library mutant VYYCAKVTYLPS (Fab, V domains shown) VH: EVQLVESGGGLVQPGRSLRLSCAASGFTFDDYAMHWVRQAPGKGLEWVSAITWNSGHIDYADSVEGRFTISRDNAKNSLYLQMNSLRAEDTAVYYCAKVTYLPSASSLDYWGQGTLVTVSS VL: not shown
61600 | CDRH3 library mutant VYYCAKVKYLPP (Fab, V domains shown) VH: EVQLVESGGGLVQPGRSLRLSCAASGFTFDDYAMHWVRQAPGKGLEWVSAITWNSGHIDYADSVEGRFTISRDNAKNSLYLQMNSLRAEDTAVYYCAKVKYLPPASSLDYWGQGTLVTVSS VL: not shown
99200 | CDRH3 library mutant VYYCAKVTYTPS (Fab, V domains shown) VH: EVQLVESGGGLVQPGRSLRLSCAASGFTFDDYAMHWVRQAPGKGLEWVSAITWNSGHIDYADSVEGRFTISRDNAKNSLYLQMNSLRAEDTAVYYCAKVTYTPSASSLDYWGQGTLVTVSS VL: not shown

What follows are binders tested against T1, biotinylated TNF alpha (assay: yeast display FACS sorting on biotinylated TNF alpha, NGS enrichment, CDRH2 library).

Enrichment | Binder
192 | CDRH2 library mutant AAISWNGGHQ (Fab, V domains shown) VH: EVQLVESGGGLVQPGRSLRLSCAASGFTFDDYAMHWVRQAPGKGLEWVAAISWNGGHQDYADSVEGRFTISRDNAKNSLYLQMNSLRAEDTAVYYCAKVSYLSTASSLDYWGQGTLVTVSS VL: not shown
66 | CDRH2 library mutant GAISWNGGHH (Fab, V domains shown) VH: EVQLVESGGGLVQPGRSLRLSCAASGFTFDDYAMHWVRQAPGKGLEWVGAISWNGGHHDYADSVEGRFTISRDNAKNSLYLQMNSLRAEDTAVYYCAKVSYLSTASSLDYWGQGTLVTVSS VL: not shown
91 | CDRH2 library mutant AAITWNGGHT (Fab, V domains shown) VH: EVQLVESGGGLVQPGRSLRLSCAASGFTFDDYAMHWVRQAPGKGLEWVAAITWNGGHTDYADSVEGRFTISRDNAKNSLYLQMNSLRAEDTAVYYCAKVSYLSTASSLDYWGQGTLVTVSS VL: not shown
75 | CDRH2 library mutant AAISWNGGHA (Fab, V domains shown) VH: EVQLVESGGGLVQPGRSLRLSCAASGFTFDDYAMHWVRQAPGKGLEWVAAISWNGGHADYADSVEGRFTISRDNAKNSLYLQMNSLRAEDTAVYYCAKVSYLSTASSLDYWGQGTLVTVSS VL: not shown
417 | CDRH2 library mutant AAINWNGGHR (Fab, V domains shown) VH: EVQLVESGGGLVQPGRSLRLSCAASGFTFDDYAMHWVRQAPGKGLEWVAAINWNGGHRDYADSVEGRFTISRDNAKNSLYLQMNSLRAEDTAVYYCAKVSYLSTASSLDYWGQGTLVTVSS VL: not shown
164 | CDRH2 library mutant AAISWNGGHH (Fab, V domains shown) VH: EVQLVESGGGLVQPGRSLRLSCAASGFTFDDYAMHWVRQAPGKGLEWVAAISWNGGHHDYADSVEGRFTISRDNAKNSLYLQMNSLRAEDTAVYYCAKVSYLSTASSLDYWGQGTLVTVSS VL: not shown
93 | CDRH2 library mutant AAIAWNGGHS (Fab, V domains shown) VH: EVQLVESGGGLVQPGRSLRLSCAASGFTFDDYAMHWVRQAPGKGLEWVAAIAWNGGHSDYADSVEGRFTISRDNAKNSLYLQMNSLRAEDTAVYYCAKVSYLSTASSLDYWGQGTLVTVSS VL: not shown
133 | CDRH2 library mutant GAISWNGGHT (Fab, V domains shown) VH: EVQLVESGGGLVQPGRSLRLSCAASGFTFDDYAMHWVRQAPGKGLEWVGAISWNGGHTDYADSVEGRFTISRDNAKNSLYLQMNSLRAEDTAVYYCAKVSYLSTASSLDYWGQGTLVTVSS VL: not shown
64 | CDRH2 library mutant GAITWNGGHR (Fab, V domains shown) VH: EVQLVESGGGLVQPGRSLRLSCAASGFTFDDYAMHWVRQAPGKGLEWVGAITWNGGHRDYADSVEGRFTISRDNAKNSLYLQMNSLRAEDTAVYYCAKVSYLSTASSLDYWGQGTLVTVSS VL: not shown
62 | CDRH2 library mutant GAINWNGGHT (Fab, V domains shown) VH: EVQLVESGGGLVQPGRSLRLSCAASGFTFDDYAMHWVRQAPGKGLEWVGAINWNGGHTDYADSVEGRFTISRDNAKNSLYLQMNSLRAEDTAVYYCAKVSYLSTASSLDYWGQGTLVTVSS VL: not shown
109 | CDRH2 library mutant AAIAWNGGHQ (Fab, V domains shown) VH: EVQLVESGGGLVQPGRSLRLSCAASGFTFDDYAMHWVRQAPGKGLEWVAAIAWNGGHQDYADSVEGRFTISRDNAKNSLYLQMNSLRAEDTAVYYCAKVSYLSTASSLDYWGQGTLVTVSS VL: not shown
213 | CDRH2 library mutant AAITWNGGHR (Fab, V domains shown) VH: EVQLVESGGGLVQPGRSLRLSCAASGFTFDDYAMHWVRQAPGKGLEWVAAITWNGGHRDYADSVEGRFTISRDNAKNSLYLQMNSLRAEDTAVYYCAKVSYLSTASSLDYWGQGTLVTVSS VL: not shown
193 | CDRH2 library mutant AAISWNGGHT (Fab, V domains shown) VH: EVQLVESGGGLVQPGRSLRLSCAASGFTFDDYAMHWVRQAPGKGLEWVAAISWNGGHTDYADSVEGRFTISRDNAKNSLYLQMNSLRAEDTAVYYCAKVSYLSTASSLDYWGQGTLVTVSS VL: not shown
197 | CDRH2 library mutant AAIAWNGGHR (Fab, V domains shown) VH: EVQLVESGGGLVQPGRSLRLSCAASGFTFDDYAMHWVRQAPGKGLEWVAAIAWNGGHRDYADSVEGRFTISRDNAKNSLYLQMNSLRAEDTAVYYCAKVSYLSTASSLDYWGQGTLVTVSS VL: not shown
144 | CDRH2 library mutant AAIAWNGGHT (Fab, V domains shown) VH: EVQLVESGGGLVQPGRSLRLSCAASGFTFDDYAMHWVRQAPGKGLEWVAAIAWNGGHTDYADSVEGRFTISRDNAKNSLYLQMNSLRAEDTAVYYCAKVSYLSTASSLDYWGQGTLVTVSS VL: not shown

More lines, now with the values behind:

Binder | Enrichment
CDRH2 library mutant AAIAWNGGHH (Fab, V domains shown) VH: EVQLVESGGGLVQPGRSLRLSCAASGFTFDDYAMHWVRQAPGKGLEWVAAIAWNGGHHDYADSVEGRFTISRDNAKNSLYLQMNSLRAEDTAVYYCAKVSYLSTASSLDYWGQGTLVTVSS VL: not shown | 119
CDRH2 library mutant AAINWNSGHR (Fab, V domains shown) VH: EVQLVESGGGLVQPGRSLRLSCAASGFTFDDYAMHWVRQAPGKGLEWVAAINWNSGHRDYADSVEGRFTISRDNAKNSLYLQMNSLRAEDTAVYYCAKVSYLSTASSLDYWGQGTLVTVSS VL: not shown | 122
CDRH2 library mutant GAISWNGGHR (Fab, V domains shown) VH: EVQLVESGGGLVQPGRSLRLSCAASGFTFDDYAMHWVRQAPGKGLEWVGAISWNGGHRDYADSVEGRFTISRDNAKNSLYLQMNSLRAEDTAVYYCAKVSYLSTASSLDYWGQGTLVTVSS VL: not shown | 279
CDRH2 library mutant AAINWNSGHQ (Fab, V domains shown) VH: EVQLVESGGGLVQPGRSLRLSCAASGFTFDDYAMHWVRQAPGKGLEWVAAINWNSGHQDYADSVEGRFTISRDNAKNSLYLQMNSLRAEDTAVYYCAKVSYLSTASSLDYWGQGTLVTVSS VL: not shown | 105
CDRH2 library mutant AAISWNGGHR (Fab, V domains shown) VH: EVQLVESGGGLVQPGRSLRLSCAASGFTFDDYAMHWVRQAPGKGLEWVAAISWNGGHRDYADSVEGRFTISRDNAKNSLYLQMNSLRAEDTAVYYCAKVSYLSTASSLDYWGQGTLVTVSS VL: not shown | 382
CDRH2 library mutant GAINWNGGHR (Fab, V domains shown) VH: EVQLVESGGGLVQPGRSLRLSCAASGFTFDDYAMHWVRQAPGKGLEWVGAINWNGGHRDYADSVEGRFTISRDNAKNSLYLQMNSLRAEDTAVYYCAKVSYLSTASSLDYWGQGTLVTVSS VL: not shown | 222
CDRH2 library mutant SAINWNGGHR (Fab, V domains shown) VH: EVQLVESGGGLVQPGRSLRLSCAASGFTFDDYAMHWVRQAPGKGLEWVSAINWNGGHRDYADSVEGRFTISRDNAKNSLYLQMNSLRAEDTAVYYCAKVSYLSTASSLDYWGQGTLVTVSS VL: not shown | 79
CDRH2 library mutant SAISWNGGHH (Fab, V domains shown) VH: EVQLVESGGGLVQPGRSLRLSCAASGFTFDDYAMHWVRQAPGKGLEWVSAISWNGGHHDYADSVEGRFTISRDNAKNSLYLQMNSLRAEDTAVYYCAKVSYLSTASSLDYWGQGTLVTVSS VL: not shown | 87
CDRH2 library mutant SAISWNGGHQ (Fab, V domains shown) VH: EVQLVESGGGLVQPGRSLRLSCAASGFTFDDYAMHWVRQAPGKGLEWVSAISWNGGHQDYADSVEGRFTISRDNAKNSLYLQMNSLRAEDTAVYYCAKVSYLSTASSLDYWGQGTLVTVSS VL: not shown | 104
CDRH2 library mutant AAISWNGGHS (Fab, V domains shown) VH: EVQLVESGGGLVQPGRSLRLSCAASGFTFDDYAMHWVRQAPGKGLEWVAAISWNGGHSDYADSVEGRFTISRDNAKNSLYLQMNSLRAEDTAVYYCAKVSYLSTASSLDYWGQGTLVTVSS VL: not shown | 82
CDRH2 library mutant AAINWNGGHH (Fab, V domains shown) VH: EVQLVESGGGLVQPGRSLRLSCAASGFTFDDYAMHWVRQAPGKGLEWVAAINWNGGHHDYADSVEGRFTISRDNAKNSLYLQMNSLRAEDTAVYYCAKVSYLSTASSLDYWGQGTLVTVSS VL: not shown | 132
